# Changes are numbered by the printed parent chain.
# T1: human IL-1α (human, UniProt P01583 113-271)
# T1 construct: also called IL-1alpha; hIL-1α
# T1 sequence (looked up): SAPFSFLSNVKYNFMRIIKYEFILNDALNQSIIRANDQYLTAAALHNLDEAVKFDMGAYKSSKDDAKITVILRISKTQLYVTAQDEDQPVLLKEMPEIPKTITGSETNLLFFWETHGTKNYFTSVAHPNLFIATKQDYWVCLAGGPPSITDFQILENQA
# T2: human IL-1α (human, UniProt P01583 113-271)
# T2 sequence (looked up): T1 sequence (looked up)
# B1: ABT1-122-510 (other)
# VL: DIQMTQSPSSLSASVGDRVTITCRFSYPIWTELNWYQQKPGKAPKLLIYGSSSLQSGVPSRFSGSGSGTDFTLTISSLQPEDFATYYCQQFAYFPATFGQGTKVEIKR
# notes: VK dAb
# B2: ABT1-122-555 (other)
# VL: B1 VL with F25A, Y27Q, A43T
# notes: VK dAb
# B3: ABT1-122-551 (other)
# VL: B1 VL with F25A, S26K, Y27F, P28N, A43T
# notes: VK dAb
# B4: ABT1-122-556 (other)
# VL: B1 VL with F25A, Y27Q, Y87H
# notes: VK dAb
# B5: ABT1-122-552 (other)
# VL: B1 VL with F25A, Y27L, P28G, I29V
# notes: VK dAb
# B6: ABT2-108/ABT1-95-3 hu IgG1/K wt (bispecific antibody, V domains shown)
# VH: EVQLLESGGGLVQPGGSLRLSCAASGFTFAEYTMMWVRQAPGKGLEWVSRIGQDGKNTYYADSVKGRFTISRDNSKNTLYLQMNSLRAEDTAVYYCAKYTGRVGVHHLFDYWGQGTLVTSS
# VL: DIQMTQSPSSLSASVGDRVTITCRASQPIHGNLRWYQQKPGKAPKLLIYSSSYLQSGVPSRFSGSGSGTDFTLTISSLQPEDFATYHCQQGYRWPVTFGQGTKVEIKR
# B7: ABT2-65-17/ABT1-95-15 huIgG1/K wt (bispecific antibody, V domains shown)
# VH: EVQLLESGGGLVQPGGSLRLSCVASGFTFEDYQMGWVRQAPGKGLEWVSSISAMGNRTYYADSVKGRFTISRDDSKNTLYLQMNSLRAEDTAVYYCAQNLVRLGRSRWMFDYWGQGTLVTVSS
# VL: B6 VL with H30V, G31R, Q55E, S56P
# B8: ABT1-222 (other)
# VL: B6 VL with H30T, G31R, S50H, Y53V, H87Y
# notes: VK dAb
# B9: ABT1-122-553 (other)
# VL: B1 VL with F25A, Y27Q, N34K
# notes: VK dAb
# B10: ABT1-95-A4 (other)
# VL: B6 VL with Q27R, I29G, H30V, G31R, S51R, Y53F, Q55E, S56P, Q89L, V96P
# notes: VK dAb
# B11: IgG pairing ABT1-122-750X with ABT2-65-17 (bispecific antibody, V domains shown)
# VH: B7 VH
# VL: DIQMTQSPSSLSASVGDRVAITCSASQHIWTEISWYQQKPGKAPKLLIYGSASRQKGVPSRFSGSGSGTDFTLTISSLQPEDFATYYCKQFAYFPNTFGQGTKVEIKR
# B12: ABT1-122-512 (other)
# VL: B1 VL with F25A, Y27Q, S52A, S53K, L54R, S56R, Q89K
# notes: VK dAb
# B13: ABT1-122-505 (other)
# VL: B1 VL with F25A, Y27Q, Q89K
# notes: VK dAb
# B14: ABT1-122-750MT (other)
# VL: B11 VL with A20T, I33M, A43T
# notes: VK dAb
# B15: ABT1-122-513 (other)
# VL: B1 VL with F25A, Y27Q, S52G, L54R, S56R, Q89K
# notes: VK dAb
# B16: ABT1-122-750MH (other)
# VL: B11 VL with A20T, I33M, Y87H
# notes: VK dAb
# B17: ABT1-122-750xH (other)
# VL: B11 VL with Y87H
# notes: VK dAb
# B18: ABT1-122-508 (other)
# VL: B1 VL with F25A, Y27Q, S56R
# notes: VK dAb
# B19: ABT1-122-750M (other)
# VL: B11 VL with A20T, I33M
# notes: VK dAb
# B20: ABT2-108/ABT1-122 Fab on yeast surface (Fab, V domains shown)
# VH: EVQLLESGGGLVQPGGSLRLSCAASGFTFAEYTMMWVRQAPGKGLEWVSRIGQDGKNTYYADSVKGRFTISRDNSKNTLYLQMNSLRAEDTAVYYCAKYTGRVGVHHLFDYWGQGTLVTVSS
# VL: B1 VL with F25A, Y27Q
# B21: ABT2-108-608/ABT1-122 Fab on yeast surface (Fab, V domains shown)
# VH: B20 VH with Y60T, A61R
# VL: B1 VL with F25A, Y27Q
# B22: ABT2-108-615/ABT1-122 Fab on yeast surface (Fab, V domains shown)
# VH: B20 VH with Y59V, Y60I, A61R
# VL: B1 VL with F25A, Y27Q
# B23: ABT2-108-617/ABT1-122 Fab on yeast surface (Fab, V domains shown)
# VH: B20 VH with V103I, G104F, V105T
# VL: B1 VL with F25A, Y27Q
# B24: ABT2-108-603/ABT1-122 Fab on yeast surface (Fab, V domains shown)
# VH: B20 VH with G52T, Q53D, D54A
# VL: B1 VL with F25A, Y27Q
# B25: ABT2-108-616/ABT1-122 Fab on yeast surface (Fab, V domains shown)
# VH: B20 VH with V103I, G104Y, V105N
# VL: B1 VL with F25A, Y27Q
# B26: ABT2-108-604/ABT1-122 Fab on yeast surface (Fab, V domains shown)
# VH: B20 VH with I51V, G52T, Q53Y
# VL: B1 VL with F25A, Y27Q
# B27: ABT2-108-602/ABT1-122 Fab on yeast surface (Fab, V domains shown)
# VH: B20 VH with Y32E, T33K, M34Y
# VL: B1 VL with F25A, Y27Q
# B28: ABT2-108-612/ABT1-122 Fab on yeast surface (Fab, V domains shown)
# VH: B20 VH with V103I, G104M, V105G
# VL: B1 VL with F25A, Y27Q
# B29: ABT2-108-614/ABT1-122 Fab on yeast surface (Fab, V domains shown)
# VH: B20 VH with V103I, G104L, V105R
# VL: B1 VL with F25A, Y27Q
# B30: ABT2-108-606/ABT1-122 Fab on yeast surface (Fab, V domains shown)
# VH: B20 VH with A61R, D62S
# VL: B1 VL with F25A, Y27Q
# B31: ABT2-108-601/ABT1-122 Fab on yeast surface (Fab, V domains shown)
# VH: B20 VH with Y32E, T33S, M34W
# VL: B1 VL with F25A, Y27Q
# B32: ABT2-108-605/ABT1-122 Fab on yeast surface (Fab, V domains shown)
# VH: B20 VH with A61R, D62E, S63D
# VL: B1 VL with F25A, Y27Q
# B33: ABT2-108-606 (other)
# VH: B20 VH with A61R, D62S
# notes: VH dAb
# B34: ABT2-108-607 (other)
# VH: B20 VH with A61R, D62S, S63D
# notes: VH dAb
# B35: ABT2-108-612 (other)
# VH: B20 VH with V103I, G104M, V105G
# notes: VH dAb
# B36: ABT2-108-620x (other)
# VH: B20 VH with Y32E, T33S, M34W, A61R, D62E, S63D, V103I, G104M, V105G
# notes: VH dAb
# B37: ABT2-108-617 (other)
# VH: B20 VH with V103I, G104F, V105T
# notes: VH dAb
# B38: ABT2-108-620S (other)
# VH: B20 VH with A30S, Y32E, T33S, M34W, A61R, D62E, S63D, V103I, G104M, V105G
# notes: VH dAb
# B39: ABT1-207 (other)
# VH: EVQLLESGGGLIQPGGSLRLSCAASGFTFGRYYMSWVRQAPGKGLEWVSSIDYLGTNTYYADSVKGRFTISRDNSKNTLYLQMNSLRAEDTAVYYCAKLTRIRPPNFDYWGQGTLVTVSS
# notes: VH dAb
# B40: ABT1-95-A1 (other)
# VL: DIQMTQSPSSLSASVGDRVTITCRASRPGVRNLRWYQQKPGKAPKLLIYHVSDLEPGVPSRFSGSGSGTDFTLTISSLQPEDFATYHCRQGYVWPVPFDQGTKVEIKR
# notes: VK dAb
# Experiments:
# human IL-1α [1] = molecular target: T1, human IL-1α; experiment: Table 60 heading; dAbs from selection on antigen
# human IL-1α [2] = molecular target: T2, human IL-1α; experiment: cell-based or functional assay
# human IL-1β [3] = molecular target: T3, human IL-1β (human, UniProt P01584 117-269); experiment: cell-based or functional assay
# human IL-1α [4] = molecular target: T2, human IL-1α; experiment: cell-based or functional assay; remark: listed apart in the source
# human IL-1β [5] = molecular target: T3, human IL-1β; experiment: cell-based or functional assay; remark: listed apart in the source
# human IL-1β [6] = molecular target: T3, human IL-1β; experiment: yeast surface Fab display, flow cytometry titration
# human IL-1β [7] = molecular target: T4, human IL-1β (human, UniProt P01584 117-269); experiment: Table 60 heading; dAbs from selection on antigen
# T4 construct: also called IL-1beta; hIL-1β
Binder,binding result (human IL-1α [1]),EC50 (human IL-1β [6]) [nM],further results
B1,binds,–,–
B2,binds,–,–
B3,binds,–,–
B4,binds,–,–
B5,binds,–,–
B6,–,–,IL-1α IC50 (human IL-1α [2]): 1500 nM; IL-1β IC50 (human IL-1β [3]): 200 nM; MRC5 IL-1α (human IL-1α [4]): 300 nM
B7,–,–,MRC5 IL-1α (human IL-1α [4]): 2.7 nM; MRC5 IL-1β (human IL-1β [5]): 0.094 nM
B8,binds,–,–
B9,binds,–,–
B10,binds,–,–
B11,–,–,MRC5 IL-1α (human IL-1α [4]): 20 nM; MRC5 IL-1β (human IL-1β [5]): 1 nM
B12,binds,–,–
B13,binds,–,–
B14,binds,–,–
B15,binds,–,–
B16,binds,–,–
B17,binds,–,–
B18,binds,–,–
B19,binds,–,–
B20,–,5.78,–

Binder,binding result (human IL-1α [1]),EC50 (human IL-1β [6]) [nM],further results
B21,–,0.366,–
B22,–,0.214,fold improvement in affinity over ABT2-108 (human IL-1β [6]): 25 fold
B23,–,0.224,fold improvement in affinity over ABT2-108 (human IL-1β [6]): 25 fold
B24,–,1.35,–
B25,–,0.324,–
B26,–,1.35,fold improvement in affinity over ABT2-108 (human IL-1β [6]): 5 fold
B27,–,0.474,–
B28,–,0.267,–
B29,–,1.01,–
B30,–,0.343,–
B31,–,0.522,–
B32,–,0.21,–
B33,–,–,binding result (human IL-1β [7]): binds
B34,–,–,binding result (human IL-1β [7]): binds
B35,–,–,binding result (human IL-1β [7]): binds
B36,–,–,binding result (human IL-1β [7]): binds
B37,–,–,binding result (human IL-1β [7]): binds
B38,–,–,binding result (human IL-1β [7]): binds
B39,binds,–,–
B40,binds,–,–

# From patent US20090291081A1 (AbbVie / Abbott, published 2009)
